This is an account of results in patent publication US20210047402A1 (TENEOBIO, published 2021).

The chains are these.
T1: human CD22 (human, UniProt P20273 20-687, limits assumed)
T1 construct: also called SIGLEC-2; human CD22 protein
T1 sequence (looked up): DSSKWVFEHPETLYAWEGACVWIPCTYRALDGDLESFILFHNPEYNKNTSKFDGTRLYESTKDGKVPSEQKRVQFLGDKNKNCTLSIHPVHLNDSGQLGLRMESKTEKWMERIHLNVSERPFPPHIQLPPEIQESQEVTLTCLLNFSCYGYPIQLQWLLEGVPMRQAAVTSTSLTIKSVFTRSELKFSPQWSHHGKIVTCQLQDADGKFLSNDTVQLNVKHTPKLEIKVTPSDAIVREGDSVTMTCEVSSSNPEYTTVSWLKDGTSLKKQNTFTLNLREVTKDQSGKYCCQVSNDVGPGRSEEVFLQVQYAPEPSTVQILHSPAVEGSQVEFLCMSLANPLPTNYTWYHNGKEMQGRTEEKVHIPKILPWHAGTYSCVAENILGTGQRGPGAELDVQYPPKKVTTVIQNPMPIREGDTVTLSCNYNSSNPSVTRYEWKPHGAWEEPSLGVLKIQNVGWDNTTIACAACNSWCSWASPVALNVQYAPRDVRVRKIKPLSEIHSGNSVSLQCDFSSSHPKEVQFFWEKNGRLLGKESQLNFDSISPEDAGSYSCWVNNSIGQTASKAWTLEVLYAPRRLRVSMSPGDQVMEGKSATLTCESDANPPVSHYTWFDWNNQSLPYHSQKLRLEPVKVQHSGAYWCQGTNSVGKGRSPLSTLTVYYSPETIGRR

B1: anti-CD22 heavy chain-only antibody Clone ID 335219 (antibody, V domains shown)
VH: QLQLQESGPGLVKPSETLSLTCTVSGGSISSSSYYWGWIRQPPGKGLEWIGSIYYSGVTYYNPSLKNRVTISVDTSKNQFSLKLSSVTAADTAVYYCTREDSSNWRSRGQGTLVTVSS
notes: Heavy chain-only antibody (UniAb), no light chain
B2: anti-CD22 heavy chain-only antibody Clone ID 335245 (antibody, V domains shown)
VH: QLQLQESGPGLVKPSETLSLTCTVSGDSISSGDYYWGWIRQPPGKGLEWIGHIYYSGATYYNPSLKNRVTISVDTSKNQFSLKLSSVTAADTAVYYCTREDSSSWRSRGQGTLVTVSS
notes: as for B1
B3: anti-CD22 heavy chain-only antibody Clone ID 335285 (antibody, V domains shown)
VH: QLQLQESGPGLVKPSETLSLTCTVSGGSISSSSYYWGWIRQPPGKGLEWIGSIYYSGVTYYNPSLKNRVTISVDTSKNQFSLKLSSVTAADTAVYYCTREDSSSWRSRGQGTLVTVSS
notes: as for B1
B4: anti-CD22 heavy chain-only antibody Clone ID 335283 (antibody, V domains shown)
VH: QLQLQESGPGLVKPSETLSLTCTVSGGSISSSSYYWGWIRQPPGKGLEWIGSIYYSGATYYNPSLKNRVTISVDTSKNQFSLKLSSVTAADTAVYYCTREDSSSWRSRGQGTLVTVSS
notes: as for B1
B5: anti-CD22 heavy chain-only antibody Clone ID 335271 (antibody, V domains shown)
VH: QLQLQESGPGLVKPSETLSLTCTVSGDSISSGDYYWGWIRHPPGKGLEWIGHIYYSGATYYNPSLKNRVTISVDTSKNQFSLKLSSVTAADTAVYYCTREDSSSWRSRGQGTLVTVSS
notes: as for B1
B6: anti-CD22 heavy chain-only antibody Clone ID 335297 (antibody, V domains shown)
VH: QLQLQESGPGLVKPSETLSLTCTVSGGSISSSSYYWGWIRQPPGKGLEWIGHIYYSGATYYNPSLKNRVTISVDTSRNQFSLNLSSVTAADTAVYYCTREDSSSWRSRGQGTLVTVSS
notes: as for B1
B7: anti-CD22 heavy chain-only antibody Clone ID 335316 (antibody, V domains shown)
VH: QLQLQESGPGLVKPSETLSLTCTVSGGSISSSSYYWGWIRQPPGKGLEWIGHIYYSGATYYNPSLKNRVTISVDTSKNQFSLKLSSVTAADTAVYYCTREDSSSWRSRGQGTLVTVSS
notes: as for B1
B8: anti-CD22 heavy chain-only antibody Clone ID 335260 (antibody, V domains shown)
VH: QLQLQESGPGLVKPSETLSLTCTVSGDSISSGDYYWGWIRQPPGKGLEWIGHIYYSGVTYYNPSLKNRVTISVDTSRNQFSLNLSSVTAADTAVYYCTREDSSSWRSRGQGTLVTVSS
notes: as for B1
B9: anti-CD22 heavy chain-only antibody Clone ID 335307 (antibody, V domains shown)
VH: QLQLQESGPGLVKPSETLSLTCTVSGDSISSGDYYWGWIRQPPGKGLEWIGSIYYSGSTYYNPSLKSRVTISVDTSKNQFSLKLSSVTAADTAVYYCTREDSSSWRSRGQGTLVTVSS
notes: as for B1
B10: anti-CD22 heavy chain-only antibody Clone ID 335234 (antibody, V domains shown)
VH: QLQLQESGPGLVKPSETLSLTCTVSGDSISSGDYYWGWIRQPPGKGLEWIGNIYYSGATYYNPSLKNRVTISVDTSKNQFSLKLSSVTAADTAVYYCTREDSSNWRSRGQGTLVTVSS
notes: as for B1
B11: anti-CD22 heavy chain-only antibody Clone ID 335293 (antibody, V domains shown)
VH: QLQLQESGPGLVKPSETLSLTCTVSGDSISSGDYYWGWIRQPPGKGLEWIGHIYYSGATYYNPSLKNRVTISVDTSRNQFSLKLSSVTAADTAVYYCTREDSSSWRSRGQGTLVTVSS
notes: as for B1
B12: anti-CD22 heavy chain-only antibody Clone ID 335230 (antibody, V domains shown)
VH: QLQLQESDPGLVKPSETLSLTCTVSGGSISSSSHYWGWIRQPPGKGLEWIGHIYYSGATYYNPSLKNRVTISVDTSRNQFSLNLSSVTAADTAVYYCTREDSSNWRSRGQGTLVTVSS
notes: as for B1
B13: anti-CD22 heavy chain-only antibody Clone ID 335273 (antibody, V domains shown)
VH: QLQLQESGPGLVKPSETLSLTCTVSGGSISSSSYYWGWIRQPPGKGLEWIGSIYYSGSTYYNPSLKSRVTISVDTSKNQFSLKLSSVTAADTAVYYCTREDSSSWRSRGQGTLVTVSS
notes: as for B1
B14: anti-CD22 heavy chain-only antibody Clone ID 335224 (antibody, V domains shown)
VH: QLQLQESGPGLVKPSETLSLTCTVSGDSISSGDYYWGWIRQPPGKGLEWIGSIYYTGSTYYNPSLKSRVTISVDTSKNQFSLKLSSVTAADTAVYYCTREDSSNWRSRGQGTLVTVSS
notes: as for B1
B15: anti-CD22 heavy chain-only antibody Clone ID 335233 (antibody, V domains shown)
VH: QLQLQESGPGLVKPSETLSLTCTVSGDSISSGDYYWGWIRQPPGKGLEWIGSIYYSGSTYYNPSLKSRVTISVDTSKNQFSLKLSSVTAADTAVYYCTREDSSNWRSRGQGTLVTVSS
notes: as for B1
B16: anti-CD22 heavy chain-only antibody Clone ID 335232 (antibody, V domains shown)
VH: QLQLQESGPGLVKPSETLSLTCTVSGDSISSGDYYWGWIRQPPGKGLEWIGHIYYSGATYYNPSLKNRVTISVDTSRNQSSLNLSSVTAADTAVYYCTREDSSNWRSRGQGTLVTVSS
notes: as for B1
B17: anti-CD22 heavy chain-only antibody Clone ID 335236 (antibody, V domains shown)
VH: QLQLQESGPGLVKPSETLSLTCTVSGGSISSSSYYWGWIRQPPGKGLEWIGSIYYSGSTYYNPSLKSRVTISVDTSKNQFSLKLSSVTAADTAVYYCTREDSSNWRSRGQGTLVTVSS
notes: as for B1
B18: anti-CD22 heavy chain-only antibody Clone ID 335220 (antibody, V domains shown)
VH: QLQLQESGPGLVKPSETLSLTCTVSGGSISSSSYYWGWIRQPPGKGLEWIGSIYYSGSTYYNPSLKNRVTISVDTSKNQFSLKLSSVTAADTAVYYCTREDSSNWRSRGQGTLVTVSS
notes: as for B1
B19: anti-CD22 heavy chain-only antibody Clone ID 335254 (antibody, V domains shown)
VH: QLQLQESGPGLVKPSETLSLTCTVSGDSISSGDYYWGWIRQPPGKGLEWIGHIYYSGVTYYNPSLKNRVTISVDTSKNQFSLKLSSVTAADTAVYYCTREDSSSWRSRGQGTLVTVSS
notes: as for B1
B20: anti-CD22 heavy chain-only antibody Clone ID 335266 (antibody, V domains shown)
VH: QLQLQESGPGLVRPSETLSLTCTVSGGSISSSSYYWGWIRQPPGKGLEWIGSIYYSGSTYYNPSLKSRVTISVDTSKNQFSLKLSSVTAADTAVYYCTREDSSSWRSRGQGTLVTVSS
notes: as for B1
B21: anti-CD22 heavy chain-only antibody Clone ID 335244 (antibody, V domains shown)
VH: QLQLQESGPGLVKPSETLSLTCTVSGDSISSGDYYWGWIRQPPGKGLEWIGHIYYSGATYYNPSLKNRVTISVDTSRNQFSLNLSSVTAADTAVYYCTREDSSSWRSRGQGTLVTVSS
notes: as for B1
B22: anti-CD22 heavy chain-only antibody Clone ID 335226 (antibody, V domains shown)
VH: QLQLQESGPGLVKPSETLSLTCTVSGDSISSSSYYWGWIRQPPGKGLEWIGSIYYSGSTYYNPSLKSRVTISVDTSKNQFSLKLSSVTAADTAVYYCTREDSSNWRSRGQGTLVTVSS
notes: as for B1
B23: anti-CD22 heavy chain-only antibody Clone ID 335295 (antibody, V domains shown)
VH: QLQLQESGPGLVKPSETLSLTCTVSGGSISSSSYYWGWIRQPPGKGLEWIGSIYYSGATYYNPSLKNRVTISVDTSRNQFSLNLSSVTAADTAVYYCTREDSSSWRSRGQGTLVTVSS
notes: as for B1
B24: anti-CD22 heavy chain-only antibody Clone ID 335323 (antibody, V domains shown)
VH: QLQLQESGPGLVKPSETLSLTCTVSGDSISSGGYYWGWIRQPPGKGLEWIGSIYYSGSTYYNPSLKNRVTISVDTSKNQFSLKLSSVTAADTAVYYCTREDSSSWRSRGQGTLVTVSS
notes: as for B1
B25: anti-CD22 heavy chain-only antibody Clone ID 335242 (antibody, V domains shown)
VH: QLQLQESGPGLVKPSETLSLTCTVSGGSISSSSYYWGWIRQPPGKGLEWIGHIYYSGATYYNPSLKNRVTISVDTSRNQFSLNLSSVTAADTAVYYCTREDSSNWRSRGQGTLVTVSS
notes: as for B1
B26: anti-CD22 heavy chain-only antibody Clone ID 335301 (antibody, V domains shown)
VH: QLQLQESGPGLVKPSETLSLTCTVSGDSISSGDYYWGWIRQPPGKGLEWIGNIYYSGATYYNPSLKNRVTISVDTSKNQFSLKLSSVTAADTAVYYCTREDSSSWRSRGQGTLVTVSS
notes: as for B1
B27: anti-CD22 heavy chain-only antibody Clone ID 335261 (antibody, V domains shown)
VH: QLQLQESGPGLVKPSETLSLTCTVSGDSISSGDYYWGWIRQPPGKGLEWIGHIYYSGATYYNPSLENRVTISVDTSKNQFSLKLSSVTAADTAVYYCTREDSSSWRSRGQGTLVTVSS
notes: as for B1
B28: anti-CD22 heavy chain-only antibody Clone ID 335263 (antibody, V domains shown)
VH: QLQLQESGPGLVKPSETLSLTCTVSGGSINDNSHYWGWIRQPPGKGLEWIGHIYYSGATYYNPSLKNRVTISVDTSRNQFSLNLSSVTAADTAVYYCTREDSSSWRSRGQGTLVTVSS
notes: as for B1
B29: anti-CD22 heavy chain-only antibody Clone ID 335274 (antibody, V domains shown)
VH: QLQLQESGPGLVKPSETLSLTCTVSGGSISSSSYYWGWIRQPPGKGLEWIGSIYYSGSTYYNPSLKSRVTISVDTSRNQFSLNLSSVTAADTAVYYCTREDSSSWRSRGQGTLVTVSS
notes: as for B1

In the assay the target is T1, human CD22. Kind of assay: ELISA protein and cell-binding assays. In general terms: An ELISA detects its analyte on a solid surface through an enzyme-linked reagent.
On to B1, for which the binding result was “binds”.
As to B2, the binding result is “binds”.
Regarding B3, the binding result is “binds”.
The same measure for B4: “binds”; for B5: “binds”; for B6: “binds”.
The same measure for B7: “binds”; for B8: “binds”; for B9: “binds”.
On to B10, for which the binding result is “binds”.
The same measure for B11: “binds”; for B12: “binds”.
In the case of B13, the binding result is recorded as “binds”.
As for B14, the entry is “binds”; as for B15, “binds”; as for B16, “binds”.
The same measure for B17: “binds”; for B18: “binds”; for B19: “binds”.
For B20, the binding result is on record as “binds”.
With B21, the binding result is on record as “binds”.
As for B22, the entry is “binds”; as for B23, “binds”.
The same measure for B24: “binds”; for B25: “binds”; for B26: “binds”.
As for B27, the entry is “binds”; as for B28, “binds”; as for B29, “binds”.
